Data: patent publication US6803203B1, “DNA-PK assay” (Brookhaven Science Associates, priority 1993, dated 2004)

Legend:
DNA-PK [1] = biological target: T1, DNA-PK (Homo sapiens, UniProt P78527); assay: Phosphorylation of recombinant protein substrates by purified DNA-PK (SDS-PAGE, phosphorimage); type: biochemical
T1 construct: DNA-PK was purified from HeLa cells; endogenous in cells; host or cells: HeLa S3 cells; the endogenous enzyme was purified in house by chromatography
Method: The recombinant protein substrates, a total of six, (at approximately 0.1 mg/ml final concentration) were separately mixed with hsp90 in a phosphorylation reaction with purified DNA-PK (0.6 pg, 0.02 units/assay) without (−) or with (+) 5 μg/ml calf thymus DNA, in the presence of ^32P-ATP for 30 minutes at 30° C. as described by Lees-Miller, et al., Mol. Cell. Biol., 12:5041-5049 (1992). The phosphorylation reactions were stopped with SDS sample buffer and analyzed with SDS-PAGE. The gel was fixed, stained with Coomassie brilliant blue, dried and developed by autoradiographic procedures. The results of which can be seen in FIG. 9.

DNA-PK [2] = biological target: T1, DNA-PK; assay: Phosphorylation of mouse p53 by DNA-PK as a function of DNA concentration; type: biochemical; conditions: calf thymus DNA 100 μg/ml
Method: To determine whether DNA binding affected p53 phosphorylation by DNA-PK, the rate of phosphorylation of recombinant wild-type mouse p53 was measured as a function of DNA concentration. At low calf thymus DNA concentrations (0 to approximately 10 μg/ml), the initial rate of p53 phosphorylation increased sharply but then decreased as the DNA concentration was further increased. At DNA concentrations of 100 μg/ml, the rate of p53 phosphorylation fell to approximately 25% of the rate at 5 μg/ml. A similar dependence of phosphorylation rate on calf thymus DNA concentration was observed using SV40 TAg or the human Oct-1 POU domain as substrates.

B1: substrate 1: wild-type recombinant substrate: Ser Gln Glu DNA-PK site and wild-type Oct-1 POU domain; product of p349SUB1 (protein)
chain: MPEESQETFEDLWKLLPGHHHHHHGMSGGMEEPSDLEELEQFAKTFKQRRIKLGFTQGDVGLAMGKLYGNDFSQTTISRFEALNLSFKNMCKLKPLLEKWLNDAENLSSDSSLSSPSALNSPGIEGLSRRRKKRTSIETNIRVALEKSFLENQKPTSEEITMIADQLNMEKEVIRVWFCNRRQKEKRINPQPELAPEDPED
modifications: POUSUB1 artificial DNA-PK substrate
notes: wild-type recombinant substrate: Ser Gln Glu DNA-PK site and wild-type Oct-1 POU domain; product of p349SUB1
- increase in phosphate incorporation by addition of double stranded DNA (DNA-PK [1]; 5 μg/ml calf thymus DNA compared to no addition of DNA, 30 minutes at 30° C.): 20 fold
- phosphorylation by purified DNA-PK (in words) (DNA-PK [1]; DNA-dependent, compared with hsp90): equal to, if not better than, hsp90

B2: recombinant wild-type mouse p53: wild-type mouse p53 purified from Sf9 insect cells infected with recombinant virus NPVp53 (protein, UniProt P02340 1-390, looked up)
Cellular tumor antigen p53: MTAMEESQSDISLELPLSQETFSGLWKLLPPEDILPSPHCMDDLLLPQDVEEFFEGPSEALRVSGAPAAQDPVTETPGPVAPAPATPWPLSSFVPSQKTYQGNYGFHLGFLQSGTAKSVMCTYSPPLNKLFCQLAKTCPVQLWVSATPPAGSRVRAMAIYKKSQHMTEVVRRCPHHERCSDGDGLAPPQHLIRVEGNLYPEYLEDRQTFRHSVVVPYEPPEAGSEYTTIHYKYMCNSSCMGGMNRRPILTIITLEDSSGNLLGRDSFEVRVCACPGRDRRTEEENFRKKEVLCPELPPGSAKRALPTCTSASPPQKKKPLDGEYFTLKIRGRKRFEMFRELNEALELKDAHATEESGDSRAHSSYLKTKKGQSTSRHKKTMVKKVGPDSD
- rate of p53 phosphorylation relative to the rate at 5 μg/ml DNA (DNA-PK [2]): approximately 25%
